Test results reported in patent US20220315663A1 (published 2022).

Biological target: T1, cynomolgus monkey CD79b antigen (cynomolgus monkey)
T1 construct: also called cyno CD79b; CD9W1.001
Assay: SPR, cyno CD79b against human CD79b (refers to Table 32)

B1: C923B38 (trispecific antibody, human IgG1, kappa, L234A L235A)
heavy: QVQLQESGPGLVKPSETLSLTCSVSGASISSFYWSWIRQPADEGLEWIGRISPSGKTNYIPSLKSRIIMSLDASKNQFSLRLNSVTAADTAMYYCARGEYSGTYSYSFDVWGQGTMVTVSSASTKGPSVFPLAPSSKSTSGGTAALGCLVKDYFPEPVTVSWNSGALTSGVHTFPAVLQSSGLYSLSSVVTVPSSSLGTQTYICNVNHKPSNTKVDKKVEPKSCDKTHTCPPCPAPEAAGGPSVFLFPPKPKDTLMISRTPEVTCVVVSVSHEDPEVKFNWYVDGVEVHNAKTKPREEQYNSTYRVVSVLTVLHQDWLNGKEYKCKVSNKALPAPIEKTISKAKGQPREPQVYTLPPSREEMTKNQVSLSCAVKGFYPSDIAVEWESNGQPENNYKTTPPVLDSDGSFFLVSKLTVDKSRWQQGNVFSCSVMHEALHNRFTQKSLSLSPGK
light: DIVMTQSPLSLSVTPGEPASISCRSSESLLDSEDGNTYLDWFLQKPGQSPQLLIYTLSYRASGVPDRFSGSGSDTDFTLHISSLEAEDVGLYYCMQRMEFPLTFGQGTKVEIKRTVAAPSVFIFPPSDEQLKSGTASVVCLLNNFYPREAKVQWKVDNALQSGNSQESVTEQDSKDSTYSLSSTLTLSKADYEKHKVYACEVTHQGLSSPVTKSFNRGEC
chain: EIVLTQSPATLSASPGERVTLSCSASSSVSYMNWYQQKPGQAPRRWIYDSSKLASGVPARFSGSGSGRDYTLTISSLEPEDFAVYYCQQWSRNPPTFGGGTKVEIKGGSEGKSSGSGSESKSTGGSQVQLVQSGAEVKKPGSSVKVSCKASGYTFTRSTMHWVKQAPGQGLEWIGYINPSSAYTNYNQKFQGRVTLTADKSTSTAYMELSSLRSEDTAVYYCASPQVHYDYAGFPYWGQGTLVTVSSEPKSSDKTHTCPPCPAPEAAGGPSVFLFPPKPKDTLMISRTPEVTCVVVSVSHEDPEVKFNWYVDGVEVHNAKTKPREEQYNSTYRVVSVLTVLHQDWLNGKEYKCKVSNKALPAPIEKTISKAKGQPREPQVYTLPPSREEMTKNQVSLWCLVKGFYPSDIAVEWESNGQPENNYKTTPPVLDSDGSFFLYSKLTVDKSRWQQGNVFSCSVMHEALHNHYTQKSLSLSPGKGGSEGKSSGSGSESKSTGGSAIQLTQSPSSLSASVGDRVTITCRASSSVSYIHWFQQKPGKAPKPLIYATSNLASGVPSRFSGSGSGTDFTLTISSLQPEDFATYYCQQWTSNPPTFGQGTKLEIKGGSEGKSSGSGSESKSTGGSQVQLVQSGAEVKKPGSSVKVSCKASGYTFTSYNMHWVRQAPGQGLEWMGAIYPGNGDTSYAQKFQGRVTITADKSTSTAYMELSSLRSEDTAVYYCARSTYYGGDWYFNVWGQGTLVTVSS
notes: IgG1 trispecific: Fab to CD79b; second chain carries the CD3 scFv, the Fc and the CD20 scFv; also called CD79b×CD20×CD3 trispecific antibody
fold weaker affinity compared to human: > 10000 fold
